Reference: article doi:10.1101/2025.03.26.645558

Experiments:
[1] = target: E. fergusonii BrxB WT (Escherichia fergusonii); experiment: native MS; collected BrxB SEC peaks exchanged into 10 mM ammonium bicarbonate, 0.5 mg/ml, ES+-ToF MS (Xevo QToF)
[2] = target: E. fergusonii BrxB WT (Escherichia fergusonii); experiment: SEC; analytical SEC of BrxB alone on Superdex 75 increase 10/300 GL, 10 μM, 20 mM Tris HCl pH 7.9, 150 mM NaCl; monomer and dimer

E. fergusonii BrxB WT (natural protein)
stoichiometry N [1]: 2
stoichiometry N [2]: 2
